Values quoted from earlier work as cited in article PMC10742149.

Molecular target: SIRP-α (Homo sapiens) (UniProt P78324)
Sequence of UniProt P78324 (P78324 31-373): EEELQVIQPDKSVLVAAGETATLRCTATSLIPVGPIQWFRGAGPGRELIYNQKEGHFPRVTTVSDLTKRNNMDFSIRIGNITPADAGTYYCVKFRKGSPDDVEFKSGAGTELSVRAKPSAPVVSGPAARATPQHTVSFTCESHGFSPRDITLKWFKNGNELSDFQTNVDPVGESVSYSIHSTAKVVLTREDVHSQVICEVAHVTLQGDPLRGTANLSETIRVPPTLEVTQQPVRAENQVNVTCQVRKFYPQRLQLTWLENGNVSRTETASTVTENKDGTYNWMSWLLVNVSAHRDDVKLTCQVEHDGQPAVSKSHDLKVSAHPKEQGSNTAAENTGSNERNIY

Substance: CD47 (from UniProt Q08722)
- Kd: 2000 nM
